According to the Human Domainome abundance scans (Beltran et al. 2025):

B1: Membrane-associated guanylate kinase, WW and PDZ domain-containing protein 3, residues 287 to 329; numbered along this chain, Q5TCQ9 (parent)
chain: MRDETLEPLPKNWEMAYTDTGMIYFIDHNTKTTTWLDPRLCKK

Variants of: B1
Assay: abundance fitness (aPCA) (normalised: wild type 0, dead -1); higher = more abundant; growth selection in yeast, the domain comes from the species named
Conditions: Homo sapiens

Abundance fitness: each site, then its substitutions
T32: H -0.438; A -0.207; V -0.082; L -0.152; C -0.101; R -0.206; G -0.357
Y17: K -0.03; H -0.121; F -0.043; S -0.024; D -0.323; N -0.194; C -0.052; A 0.026; L -0.034; E 0.031; Q -0.025; R 0.054; W -0.043; P -0.376; V 0; G -0.199
I26: R -0.321; P -0.868; K -0.196; D -0.659; G -0.657; L -0.097; C -0.352; E -0.543; Q -0.485; W -0.648; S -0.634; T -0.437; Y -0.479
Y24: W -0.579; Q -0.582; K -0.668; H -0.574; L -0.61; C -0.652; E -0.53; R -0.598; S -0.708; T -0.638; F -0.146; D -0.524; V -0.567; A -0.723; G -0.774; I -0.678
K31: H 0.018; D -0.205; L -0.182; N -0.159; E -0.035; I -0.674; Q -0.004; W -0.278; R -0.017; C -0.09; P -0.812; M -0.071; V -0.385; T -0.214; G -0.09; Y -0.369
F25: S -0.616; P -0.679; V -0.989; T -0.662; L -0.82; M -0.721; K -0.68; G -0.57; W -0.077; C -0.774; Q -0.634; E -0.565; H -0.421; R -0.692; D -0.516; I -0.557
D19: S -0.019; K -0.034; Y -0.173; R -0.091; Q -0.055; C -0.122; T -0.067; P -0.07; A -0.047; I -0.536; E -0.001
A16: N -0.318; V -0.193; K -0.067; P -0.914; G -0.149; L -0.297; D -0.257; H -0.514; M -0.36; E -0.278; Q -0.15; R -0.076
T30: W -0.572; C -0.271; M -0.21; Q -0.139; I -0.423; S -0.051; E -0.265; P -0.887; L -0.207; K -0.155; A -0.116; G -0.314; D -0.281
H28: S -0.28; G -0.275; V -0.273; E -0.511; T -0.214; R -0.164; L -0.379; A -0.323; M -0.386; D -0.53; I -0.328; Q -0.306; P -0.364
T18: R -0.7; L -0.471; Q -0.624; N -0.391; K -0.539; A -0.151; S -0.128; C -0.223; P -1.03; W -0.676; M -0.335; G -0.244; E -0.389
W13: S -0.698; Q -0.729; T -0.475; V -0.303; R -0.634
E14: L -0.456; M -0.346; F -1.06; I -0.39; P -0.868; S -0.12; H -0.429; V -0.346; W -0.834; Y -0.368; N -0.372; G -0.224; Q -0.087; K -0.262; A -0.132; R -0.273
